In the supplement of paper PMC12042874:
± gives the uncertainty stated by the source.

Experiment: amyloid nucleation score (Sup35N fusion, yeast selection) (log enrichment); library NNK2; higher = more nucleation; inactive = no reads after selection
How it was run: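 Random libraries were run with three technical output replicates. In each, psi-negative yeast expressing Sup35N fused to peptides of 20 random codons were induced 24 hours with 100 μM copper sulfate and grown 7 days at 30°C on medium lacking adenine and uracil, and input and output plasmid inserts were Illumina-sequenced. The nucleation score is the DiMSum log enrichment of output over input reads, centred on the mode score of non-aggregating sequences, and sequences under 100 input reads were excluded.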

| Substance | amyloid nucleation score |
| --- | --- |
| IDVMVMVRQSAKEQSSVRGC | 1.34 ± 0.2 |
| IDWCFGRRENVGGHVRWRNG | 1.48 ± 0.3 |
| IELFVSWKIGWVELRDVLLV | -0.055 ± 0.55 |
| IELLYIRYK | -2.09 ± 1.1 |
| IEPKHWIYTSGGLTRGRLYG | 0.073 ± 1.1 |
| IERRVTWFLTLARCKLPTGQ | 0.796 ± 0.33 |
| IESRL | inactive |
| IESRVWVGWSDD | -0.044 ± 0.49 |
| IETCKKAHRSKYTLFGLLLY | -0.383 ± 0.63 |
| IFCRIDYIYVYLHHVYVTVQ | 5.228 ± 0.036 |
| IFDRNSYFKEHFVMIGLEGR | 0.228 ± 1 |
| IFEAVVRVG | inactive |
| IFHVIVWLFEDAFVQVQNYR | 4.29 ± 0.078 |
| IFKSHIPW | -1.22 ± 0.48 |
| IFLSSDLTDGVYSSLYDPID | 0.042 ± 1.1 |
| IFNDVIFNLRFC | 7.443 ± 0.054 |
| IFRAYIAGKTIYRCDQYVGM | -0.539 ± 0.55 |
| IFSHFILCKQAAVCTVNEFR | 5.08 ± 0.072 |
| IFSNLRSFE | 0.657 ± 0.22 |
| IFVALEIGVVNVDQVAKDVC | 6.75 ± 0.069 |
| IFWTELCNPKFSFC | 9.439 ± 0.023 |
| IFYCFGKLDA | 5.18 ± 0.072 |
| IFYYG | -0.945 ± 0.36 |
| IGCGARLEGKMMACMSRDRQ | 0.461 ± 0.64 |

| Substance | amyloid nucleation score |
| --- | --- |
| IGCLVYHIITRVFVFVSPLF | inactive |
| IGDSVGSDWTSTFMCDSVCR | -0.15 ± 0.42 |
| IGLANSSVCFSAFVTWYSLH | inactive |
| IGNRQVDFISDGAG | 0.034 ± 1.1 |
| IGSVDDLNLKRICNDLDTP | 0.182 ± 0.79 |
| IGTEWVFVM | 0.17 ± 0.64 |
| IGTLSRNERASRNTHWDILT | 0.757 ± 0.47 |
| IGVQVFPRMHVG | 3.06 ± 0.15 |
| IHASSVILITCFEFNFYYFA | 4.64 ± 0.057 |
| IHDWKQSYVNVC | 0.084 ± 0.45 |
| IHIWGSLSIDIEFVCGMKAR | 1.04 ± 0.56 |
| IHKAGFKDKGC | inactive |
| IHLQIWAFFMLRIPPGRNKT | -0.636 ± 0.76 |
| IHLRWPMKRLVYTYCFYFYS | -0.788 ± 0.76 |
| IHLWICSISYNAVSIRFTSY | 1.42 ± 0.097 |
| IHRPTRFYTFSSSTSEQA | 0.351 ± 0.64 |
| IHYFRTWVYHYGLRGFGIIR | 0.918 ± 0.58 |
| IIALKMVVLIKCIKVY | inactive |
| IICMEVIFSLANCADWRTAV | 3.53 ± 0.12 |
| IICTSSPQLIVYTSVRS | 7.08 ± 0.042 |
| IIGAWKM | 0.992 ± 0.33 |
| IIHDEVSLPWI | inactive |
| IILRSCMYCGSLAIIKGWMS | 2.91 ± 0.12 |
| IINYANLSTVVNFYIRIGYC | 6.812 ± 0.028 |

| Substance | amyloid nucleation score |
| --- | --- |
| IIPFRRSTVRLVRCLWISGL | 1.13 ± 0.31 |
| IIRPVFILNLPYLFRCVG | 0.465 ± 0.28 |
| IKCRVITQSCIPSSINRLDG | -0.114 ± 1.1 |
| IKGTQSVRDTVSLVVIKDVW | 0.627 ± 0.4 |
| IKGVRQHLTTYKGTL | -0.408 ± 0.49 |
| IKRSMCICY | 0.089 ± 1.1 |
| IKSLSMRYFIRLFRY | inactive |
| IKSRICISSYNNDMCGRFVL | -1.86 ± 0.62 |
| IKTIADIYCISQSRIGSKLT | inactive |
| IKVSFRRTGGLLHLCKWLTC | -0.5 ± 0.33 |
| IKWSLHRYYFVMFICSFIAS | -0.83 ± 0.61 |
| IKYNEVVVVRWEANGRFE | 4 ± 0.063 |
| ILATSRVILVFCAMCACRWG | 2.98 ± 0.062 |
| ILCFGFITTNSIRLQSPMVV | 0.753 ± 0.51 |
| ILCLFTLSSSKCYGG | 5.689 ± 0.037 |
| ILEFKINPG | -1.05 ± 0.43 |
| ILIREPLHDIGNVNLLVRSS | -0.359 ± 0.48 |
| ILKIYVGQSSPLYFACLHIK | inactive |
| ILLQLSIKRSVASSWLHNGR | 3.61 ± 0.046 |
| ILLYNCCCEGWACKSWLGSH | inactive |
| ILSFM | -1.27 ± 1 |
| ILTFRVYPIPFDFYFGGLEL | 0.034 ± 1.1 |
| ILVTVNTGSFLKSILHWL | 2.31 ± 0.19 |
| ILWWNKAMGCFNELVLGRRV | -0.016 ± 0.79 |

| Substance | amyloid nucleation score |
| --- | --- |
| ILYKYETLMLFLSSEYNVIC | 3.9 ± 0.039 |
| ILYLGHN | -1.61 ± 0.64 |
| IMDLAKVCEGVLSSGRVALI | 0.096 ± 0.29 |
| IMFMGNTVIRDCDLQ | 4.32 ± 0.062 |
| IMLLNLYKDGSGGRRSKLLQ | -0.09 ± 0.33 |
| IMMNNMAVIFR | 6.3 ± 0.083 |
| IMSFKFENC | 1.78 ± 0.26 |
| IMWYFIINWHP | 4.79 ± 0.074 |
| IMYCCVMLIFTMSVVEWGFT | -0.383 ± 1 |
| IMYLLGKGLWTVAVYPSRYP | -0.806 ± 0.61 |
| INDSEVMRICLPVGFGHLEG | 2.45 ± 0.077 |
| INGNFVIKKCYRGYVS | -0.557 ± 1.1 |
| INIRLFFHDFTRMGSELIGY | 0.318 ± 0.8 |
| INKVFNCYFLFSGHIVGLRS | -0.321 ± 0.79 |
| INQKDRRGNPYY | -0.042 ± 0.79 |
| INWCSDMHNCVCLTIGQWLV | 3.36 ± 0.16 |
| IPRFRLYANCRMFNRV | 0.056 ± 0.39 |
| IPRSPCDKENKSRHLHVAWA | -0.372 ± 0.45 |
| IPSRFPNFNR | -1.62 ± 0.55 |
| IPTACEHKRSPRVQPQRNSA | 0.163 ± 0.4 |
| IQGFGLKLVEIYWEARQLVH | inactive |
| IQIFGVTYGSG | -0.007 ± 0.79 |
| IREEGQFSLAVFSYMKVSPY | 2.95 ± 0.071 |
| IREGLFRVTIDYSSMLCSGR | 3.01 ± 0.12 |

| Substance | amyloid nucleation score |
| --- | --- |
| IREPSCWFLFFIKINAGDAV | inactive |
| IRFWSKSGFVQGCSIRISLS | 0.02 ± 1 |
| IRGLGWSAPLRVIRVAPTYV | 0.501 ± 0.57 |
| IRIACSGLSDRFMNRVHLHS | -0.017 ± 0.46 |
| IRIGFRMHCLVIQYMNCFIS | 2.18 ± 0.075 |
| IRKYVAWNLRALTMAMIQQR | -0.959 ± 0.48 |
| IRMGRANRWEVLARWTSVVA | 9.548 ± 0.079 |
| IRNILWVLPKVVSDAFI | 0.325 ± 0.57 |
| IRRFRGLTSRSTRCSKGSKG | -0.072 ± 0.45 |
| IRSSSSGNQSQVFSPRDNPP | -0.381 ± 0.31 |
| IRVNMSVTITRGWICHRLCK | 0.293 ± 0.27 |
| IRYDLQQGQFPPTRMECLVL | 0.437 ± 0.27 |
| ISAETPMIAFCLVPLNPRSV | 1.06 ± 0.68 |
| ISASGVDSDEGVRPGQLMMC | 10.4 ± 0.065 |
| ISCCDRGCDAYLEVWPKLNK | -0.523 ± 1 |
| ISDGCCGMLNAYCFTLVNCK | 4.18 ± 0.062 |
| ISEFHGYSMFKHEARQNGCQ | 5.516 ± 0.033 |
| ISGFRPSAYWSVLNWNSSL | -1.78 ± 1.1 |
| ISHTLHATITVLLVSNFCLS | 0.475 ± 0.43 |
| ISLFDYGQGMFHRCFMAVKG | -0.131 ± 0.6 |
| ISPNALEAQMPTQCNYEDGE | 0.451 ± 0.48 |
| ISSSKRYVLKS | 0.583 ± 0.39 |
| ITADNVKSNHKAVVMNDIHG | -0.133 ± 0.49 |
| ITAFTNRVKFWS | 0.132 ± 0.36 |

| Substance | amyloid nucleation score |
| --- | --- |
| ITFMVLM | 6.6 ± 0.074 |
| ITIYQYTNYLYGSWCNHLML | 0.157 ± 1 |
| ITLTLTVCTGLCWKYGRRMW | 4.49 ± 0.071 |
| ITMSYTLGPSCFFWSLADTY | 8.218 ± 0.065 |
| ITSHVDAAVEFPNVSFSHGV | 1.37 ± 0.47 |
| ITSLCYNVREFFWGRYVSRV | inactive |
| ITTHMCYVFMWREIRAKDVD | 0.484 ± 0.8 |
| ITVFAGFLRCCYLCFLDNHS | inactive |
| IVAEMW | 1.75 ± 0.4 |
| IVCLYKKCLLCGLHLVVSIV | -0.608 ± 0.53 |
| IVDGEKYDLVWMFEGHG | -0.536 ± 0.39 |
| IVDKVGHRVYEFVIYLTEDG | inactive |
| IVDSIFTFGTRVDGWLGDCA | -0.259 ± 0.32 |
| IVFFVSWLIKCKPWFLVVNM | inactive |
| IVFLCSRKCNVNMYGL | 10.7 ± 0.071 |
| IVISWIPDNPNQMDALCRRY | 0.912 ± 0.34 |
| IVKYLVCEQTKILCMMCTCD | 8.891 ± 0.068 |
| IVNLARLKCSMCRECCGRVL | 2.64 ± 0.12 |
| IVQLVIAVTGMFLYWNYAFL | -0.461 ± 0.43 |
| IVRNPKLMLSNGH | 0.907 ± 0.58 |
| IVSIFSWTEIRATLG | -1.87 ± 0.55 |
| IVSLLLRQSQ | 4.41 ± 0.061 |
| IVSTV | 0.655 ± 0.49 |
| IVVKFCWCVGQSRYTGMSTN | 6.71 ± 0.052 |

| Substance | amyloid nucleation score |
| --- | --- |
| IWFRIQVCEIPSLIQTIVRR | -0.064 ± 0.32 |
| IWGGKDLFGGQDWNTLSYLP | -0.283 ± 0.6 |
| IWHSVWYP | -0.318 ± 0.76 |
| IWIKVTRLRVGFLKRVLVVA | -1.44 ± 0.55 |
| IWNWRQYLYVLGADRFSYMC | 4.19 ± 0.049 |
| IWPMEWNCTMDYRSPWMRHR | 2.06 ± 0.07 |
| IWTDVRLGGRDIVLDSRVYF | 2.14 ± 0.098 |
| IWTSRQTTIEAITRAHNPST | 3.83 ± 0.084 |
| IYCLATVMDMICVYGWICAW | 0.049 ± 0.34 |
| IYFKIIQDKFQTRMCSNKSW | inactive |
| IYIWCARHEILWYRNGWGRG | 0.2 ± 0.36 |
| IYNLWYGISPSVMGGLGFLR | 3.82 ± 0.062 |
| IYNVSQLRTGTDMFNL | 0.721 ± 0.51 |
| IYPLWLMKSGIRLLCGKMCL | 0.607 ± 0.34 |
| IYSEWLSLVYSLGAPVTLNS | -0.015 ± 0.46 |
| IYSYYGCYLCRNCGLVKFSK | 4.03 ± 0.07 |
| IYTLP | inactive |
| IYVECWRHRLILCIHA | 0.214 ± 0.49 |
| IYVPIGATQ | -1.26 ± 0.78 |
| IYYDVFSVSCTFVKLGWIFL | 1.96 ± 0.077 |
| IYYNGFVQCGLLIEGLITSY | 2.39 ± 0.092 |
| KAANVAEDSR | 0.978 ± 0.47 |
| KARLIAITHLPRYYWSFGVL | 0.388 ± 0.62 |
| KASHSVTRSLSVAYI | -0.714 ± 0.38 |
